Laboratory results: US11352401

target: T1, HLA-A*02 (human); assay: UV peptide-exchange ELISA; ++++ = yield >75%
T1 construct: MHC monomer made peptide-receptive by UV cleavage of a UV-sensitive ligand; also called peptide-receptive MHC class I monomer

peptide exchange yield | Binder
> 75% | LQSSGLTLLL [LQSSGLTLLL (SEQ ID NO: 98)]
> 75% | VLALVNSTV [VLALVNSTV (SEQ ID NO: 97)]
> 75% | ITIGVLARV [ITIGVLARV (SEQ ID NO: 95)]
> 75% | TLYPYQISQL [TLYPYQISQL (SEQ ID NO: 87)]
> 75% | TLQEKILQV [TLQEKILQV (SEQ ID NO: 93)]
> 75% | YVDINTFRL [YVDINTFRL (SEQ ID NO: 84)]
> 75% | YIDEFQSLV [YIDEFQSLV (SEQ ID NO: 85)]
> 75% | LLADFQALL [LLADFQALL (SEQ ID NO: 110)]
> 75% | HLVGGLHTV [HLVGGLHTV (SEQ ID NO: 96)]
> 75% | SLLTHIPTA [SLLTHIPTA (SEQ ID NO: 105)]
> 75% | VQMVITEAQKV [VQMVITEAQKV (SEQ ID NO: 88)]
> 75% | ILSTTMVTV [ILSTTMVTV (SEQ ID NO: 89)]
> 75% | FLKEKVPGI [FLKEKVPGI (SEQ ID NO: 99)]
> 75% | VLPDIETLIGV [VLPDIETLIGV (SEQ ID NO: 94)]
> 75% | LLLGSIGLLGV [LLLGSIGLLGV (SEQ ID NO: 109)]
> 75% | FIIDTTYPAYV [FIIDTTYPAYV (SEQ ID NO: 106)]
> 75% | FVIDGFDEL [FVIDGFDEL (SEQ ID NO: 86)]
> 75% | SLLEQAIAL [SLLEQAIAL (SEQ ID NO: 102)]
> 75% | GMLDIFWGV [GMLDIFWGV (SEQ ID NO: 104)]
> 75% | LLQGAIESV [LLQGAIESV (SEQ ID NO: 107)]
> 75% | FLYYPDPVL [FLYYPDPVL (SEQ ID NO: 103)]
> 75% | RQYPTPFQL [RQYPTPFQL (SEQ ID NO: 100)]

target: T2, HLA-A*01 (human); assay: UV peptide-exchange ELISA; +++ = yield >50%
T2 construct: MHC monomer made peptide-receptive by UV cleavage of a UV-sensitive ligand; also called peptide-receptive MHC class I monomer
Text: Candidate peptides for T cell based therapies according to the present invention were further tested for their MHC binding capacity (affinity). The individual peptide-MHC complexes were produced by UV-ligand exchange, where a UV-sensitive peptide is cleaved upon UV-irradiation, and exchanged with the peptide of interest as analyzed. Only peptide candidates that can effectively bind and stabilize the peptide-receptive MHC molecules prevent dissociation of the MHC complexes. To determine the yield of the exchange reaction, an ELISA was performed based on the detection of the light chain (β2m) of stabilized MHC complexes. The assay was performed as generally described in Rodenko et al. (Rodenko et al., 2006).
96 well MAXISorp plates (NUNC) were coated over night with 2 ug/ml streptavidin in PBS at room temperature, washed 4× and blocked for 1 h at 37° C. in 2% BSA containing blocking buffer. […] Peptide-MHC monomers of the UV-exchange reaction were diluted 100-fold in blocking buffer. Samples were incubated for 1 h at 37° C., washed four times, incubated with 2 ug/ml HRP conjugated anti-β2m for 1h at 37° C., washed again and detected with TMB solution that is stopped with […]. Absorption was measured at 450 nm.

peptide exchange yield | Binder
50 to 75% | RTDSCSSAQAQY [RTDSCSSAQAQY (SEQ ID NO: 172)]
50 to 75% | DTDSQRLAY [DTDSQRLAY (SEQ ID NO: 402)]
50 to 75% | TTDIIEKY [TTDIIEKY (SEQ ID NO: 186)]
50 to 75% | NTQITDIGRY [NTQITDIGRY (SEQ ID NO: 166)]
50 to 75% | KLDRSVFTAY [KLDRSVFTAY (SEQ ID NO: 153)]
50 to 75% | HTDSLHLLI [HTDSLHLLI (SEQ ID NO: 152)]
50 to 75% | LVDDGTHGQY [LVDDGTHGQY (SEQ ID NO: 161)]
50 to 75% | NLDEEKQLLY [NLDEEKQLLY (SEQ ID NO: 424)]
50 to 75% | VADLHLYLY [VADLHLYLY (SEQ ID NO: 187)]
50 to 75% | ASEQQALHTVQY [ASEQQALHTVQY (SEQ ID NO: 398)]
50 to 75% | FLDSQNLSAY [FLDSQNLSAY (SEQ ID NO: 144)]
50 to 75% | STDNFNCKY [STDNFNCKY (SEQ ID NO: 438)]
50 to 75% | NSDSSLTLREFY [NSDSSLTLREFY (SEQ ID NO: 163)]
50 to 75% | ESDREELNY [ESDREELNY (SEQ ID NO: 140)]
50 to 75% | VTDGINPLIDRY [VTDGINPLIDRY (SEQ ID NO: 190)]
50 to 75% | ELDSKVEVLTY [ELDSKVEVLTY (SEQ ID NO: 403)]
50 to 75% | NVDPVQHTY [NVDPVQHTY (SEQ ID NO: 432)]
50 to 75% | NTDPTAPPY [NTDPTAPPY (SEQ ID NO: 165)]
50 to 75% | ECDMAFHIY [ECDMAFHIY (SEQ ID NO: 139)]
50 to 75% | TADGKTYYY [TADGKTYYY (SEQ ID NO: 181)]
50 to 75% | FIDYPKKEDY [FIDYPKKEDY (SEQ ID NO: 143)]
50 to 75% | TLDAGKFQIY [TLDAGKFQIY (SEQ ID NO: 439)]
50 to 75% | VLDQGKITEY [VLDQGKITEY (SEQ ID NO: 445)]

peptide exchange yield | Binder
50 to 75% | ESDVGVVVY [ESDVGVVVY (SEQ ID NO: 141)]
50 to 75% | VTDGSLYEGVAY [VTDGSLYEGVAY (SEQ ID NO: 191)]
50 to 75% | TSAHPEDSSFY [TSAHPEDSSFY (SEQ ID NO: 184)]
50 to 75% | LLDSLREQY [LLDSLREQY (SEQ ID NO: 156)]
50 to 75% | TTDTVIRSY [TTDTVIRSY (SEQ ID NO: 444)]
50 to 75% | LLDISQKNLY [LLDISQKNLY (SEQ ID NO: 154)]
50 to 75% | EVAEPSVLFDLY [EVAEPSVLFDLY (SEQ ID NO: 142)]
50 to 75% | LTEAVLNRY [LTEAVLNRY (SEQ ID NO: 160)]
50 to 75% | YLDIPNPRY [YLDIPNPRY (SEQ ID NO: 448)]
50 to 75% | QSDPGTSVLGY [QSDPGTSVLGY (SEQ ID NO: 167)]
50 to 75% | SRTINVSNLY [SRTINVSNLY (SEQ ID NO: 176)]
50 to 75% | TDYHVRVY [TDYHVRVY (SEQ ID NO: 182)]
50 to 75% | LVDNSIRELQY [LVDNSIRELQY (SEQ ID NO: 162)]
50 to 75% | ATDISRQNEY [ATDISRQNEY (SEQ ID NO: 400)]
50 to 75% | VVDEDHELIY [VVDEDHELIY (SEQ ID NO: 447)]
50 to 75% | YADTVRPEFY [YADTVRPEFY (SEQ ID NO: 197)]
50 to 75% | LSDPSGPKSY [LSDPSGPKSY (SEQ ID NO: 418)]
50 to 75% | FVDKPVAY [FVDKPVAY (SEQ ID NO: 145)]
50 to 75% | VSDAKLDKY [VSDAKLDKY (SEQ ID NO: 188)]
50 to 75% | NLDQATRVAY [NLDQATRVAY (SEQ ID NO: 426)]
50 to 75% | VVDSVGGYLY [VVDSVGGYLY (SEQ ID NO: 195)]
50 to 75% | TLDENPGVRY [TLDENPGVRY (SEQ ID NO: 440)]
50 to 75% | HSDLKVGEY [HSDLKVGEY (SEQ ID NO: 151)]
